Measured values as given in patent publication US20170022292A1 (Novartis, published 2017).

B1: NOV1401 (human IgG1/lambda antibody with D265A and P329A in the Fc) (antibody, V domains shown)
VH: QVQLLESGGGLVQPGGSLRLSCAASGFTFSTAAMSWVRQAPGKGLEWVSGISGSGSSTYYADSVKGRFTISRDNSKNTLYLQMNSLRAEDTAVYYCARELSYLYSGYYFDYWGQGTLVTVSS
VL: QSVLTQPPSASGTPGQRVTISCSGSSSNIGSNDVSWYQQLPGTAPKLLIYKNYNRPSGVPDRFSGSKSGTSASLAISGLQSEDEADYYCSAWDQRQFDVVFGGGTKLTVLG
notes: also called NOV1401-IgG; NOV1401-Antibody
B2: NOV1401-Fab (Fab, V domains shown)
VH: B1 VH
VL: B1 VL
notes: also called Fab of the NOV1401 antibody; Fab portion of NOV1401

Experiments:
[1] = biological target: T1, cynomolgus monkey FXI zymogen (cynomolgus monkey, UniProt A0A2K5VVW4 19-624); assay: solution equilibrium titration (SET); apparent KD, N=2; cynomolgus monkey FXI zymogen; apparent KD, SET, N=2
T1 construct: also called free FXI (FXIf) in cynomolgus plasma

human FXI zymogen [2] = biological target: T2, human FXI zymogen (human, UniProt P03951 19-625); assay: cell-based or functional assay
[3] = biological target: T3, human FXI activated (human Factor XIa, full length) (human, UniProt P03951 19-387; P03951 388-625); assay: cell-based or functional assay
[4] = biological target: T4, activated cynomolgus monkey FXI (cynomolgus monkey, UniProt A0A2K5VVW4 19-387; A0A2K5VVW4 388-625); assay: solution equilibrium titration (SET); apparent KD, N=2; activated cynomolgus monkey FXI; apparent KD, SET, N=2
T4 construct: also called cynomolgus monkey FXIa; cynomolgus monkey FXI (active form)

[5] = biological target: T5, human FXI catalytic domain (residues 388-625, Swissprot P03951) (human, UniProt P03951 388-625); assay: SPR (BIACORE T200), IgG captured by goat anti-human IgG-Fc, FXI catalytic domain 0-200 nM as analyte, 25 C, 1:1 model, n=2
T5 construct: it is treated here as the same molecule; also called FXI CD; FXIa CD

human FXI zymogen [6] = biological target: T2, human FXI zymogen; assay: solution equilibrium titration (SET), MSD ECL read-out, 1:2 fit, n=3; apparent KD (avidity possible)
[7] = biological target: T3, human FXI activated (human Factor XIa, …); assay: as above
human FXI zymogen [8] = biological target: T2, human FXI zymogen; assay: SET KD compared with SPR KD for the FXI catalytic domain
[9] = biological target: T3, human FXI activated (human Factor XIa, …); assay: as above
[10] = biological target: T5, human FXI catalytic domain (residues …); assay: SPR (BIACORE T200), Fab amine-coupled on CM5 chip, FXI catalytic domain 0-200 nM as analyte, 25 C, 1:1 model, n=3
human FXI zymogen [11] = biological target: T2, human FXI zymogen; assay: SET
human FXI zymogen [12] = biological target: T2, human FXI zymogen; assay: solution equilibrium titration (SET), MSD ECL read-out, 1:1 fit, n=3
[13] = biological target: T3, human FXI activated (human Factor XIa, …); assay: as above

T3 sequence (P03951 19-387 C226S limits assumed, form in doubt, chain 1 of 2): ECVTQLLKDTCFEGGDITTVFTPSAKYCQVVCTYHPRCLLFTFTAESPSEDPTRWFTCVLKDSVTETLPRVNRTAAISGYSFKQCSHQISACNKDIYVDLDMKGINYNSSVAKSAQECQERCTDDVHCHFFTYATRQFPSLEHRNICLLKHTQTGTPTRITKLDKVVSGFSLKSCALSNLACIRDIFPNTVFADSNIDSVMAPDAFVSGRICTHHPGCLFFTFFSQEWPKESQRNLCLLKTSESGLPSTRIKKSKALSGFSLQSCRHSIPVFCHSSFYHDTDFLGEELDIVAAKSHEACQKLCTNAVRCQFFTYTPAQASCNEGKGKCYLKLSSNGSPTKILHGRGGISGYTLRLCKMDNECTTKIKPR
T3 sequence (P03951 388-625 limits assumed, form in doubt, chain 2 of 2): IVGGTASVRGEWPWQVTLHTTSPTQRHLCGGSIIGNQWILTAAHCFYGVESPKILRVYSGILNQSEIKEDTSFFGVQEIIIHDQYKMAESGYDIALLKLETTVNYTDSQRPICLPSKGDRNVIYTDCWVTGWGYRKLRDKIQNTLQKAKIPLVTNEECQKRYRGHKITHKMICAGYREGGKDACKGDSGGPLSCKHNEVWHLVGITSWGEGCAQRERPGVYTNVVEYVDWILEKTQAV
T5 sequence (P03951 388-625 limits assumed, form in doubt, one chain of several): as the sequence (P03951 388-625 limits assumed, form in doubt, chain 2 of 2) above
T2 sequence (P03951 19-625 C226S limits assumed): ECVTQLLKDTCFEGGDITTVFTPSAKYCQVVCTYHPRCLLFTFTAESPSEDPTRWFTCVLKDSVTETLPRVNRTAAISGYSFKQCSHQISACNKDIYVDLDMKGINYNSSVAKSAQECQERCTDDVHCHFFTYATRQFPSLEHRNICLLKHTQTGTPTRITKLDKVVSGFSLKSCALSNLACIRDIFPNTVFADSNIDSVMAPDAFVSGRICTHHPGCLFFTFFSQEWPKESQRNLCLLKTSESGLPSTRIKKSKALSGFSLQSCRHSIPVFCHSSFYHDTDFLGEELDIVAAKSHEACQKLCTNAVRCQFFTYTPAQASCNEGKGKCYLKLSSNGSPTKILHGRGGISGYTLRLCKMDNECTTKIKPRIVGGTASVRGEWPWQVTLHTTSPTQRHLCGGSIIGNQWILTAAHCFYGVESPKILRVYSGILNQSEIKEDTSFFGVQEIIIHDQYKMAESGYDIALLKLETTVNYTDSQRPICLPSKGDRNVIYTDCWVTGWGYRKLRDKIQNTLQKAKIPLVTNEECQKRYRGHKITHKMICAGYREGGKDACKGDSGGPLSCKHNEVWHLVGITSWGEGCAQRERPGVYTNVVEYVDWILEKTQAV
T4 sequence (chain, as listed by the source, form in doubt, chain 1 of 2): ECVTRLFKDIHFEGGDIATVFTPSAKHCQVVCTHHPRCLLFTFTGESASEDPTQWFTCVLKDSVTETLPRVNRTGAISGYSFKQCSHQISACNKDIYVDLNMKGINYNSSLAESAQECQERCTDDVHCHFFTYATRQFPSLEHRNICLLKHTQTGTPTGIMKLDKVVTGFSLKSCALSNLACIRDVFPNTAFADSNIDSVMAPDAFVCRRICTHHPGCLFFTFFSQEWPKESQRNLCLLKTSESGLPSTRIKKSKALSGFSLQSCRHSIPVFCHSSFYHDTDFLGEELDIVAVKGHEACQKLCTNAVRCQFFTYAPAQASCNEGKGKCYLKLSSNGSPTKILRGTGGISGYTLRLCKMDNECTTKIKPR
T4 sequence (chain, as listed by the source, form in doubt, chain 2 of 2): as the sequence (P03951 388-625 limits assumed, form in doubt, chain 2 of 2) above, with S59I, E156D, V225L, V238A counted along it
T1 sequence (A0A2K5VVW4 entry or part of it): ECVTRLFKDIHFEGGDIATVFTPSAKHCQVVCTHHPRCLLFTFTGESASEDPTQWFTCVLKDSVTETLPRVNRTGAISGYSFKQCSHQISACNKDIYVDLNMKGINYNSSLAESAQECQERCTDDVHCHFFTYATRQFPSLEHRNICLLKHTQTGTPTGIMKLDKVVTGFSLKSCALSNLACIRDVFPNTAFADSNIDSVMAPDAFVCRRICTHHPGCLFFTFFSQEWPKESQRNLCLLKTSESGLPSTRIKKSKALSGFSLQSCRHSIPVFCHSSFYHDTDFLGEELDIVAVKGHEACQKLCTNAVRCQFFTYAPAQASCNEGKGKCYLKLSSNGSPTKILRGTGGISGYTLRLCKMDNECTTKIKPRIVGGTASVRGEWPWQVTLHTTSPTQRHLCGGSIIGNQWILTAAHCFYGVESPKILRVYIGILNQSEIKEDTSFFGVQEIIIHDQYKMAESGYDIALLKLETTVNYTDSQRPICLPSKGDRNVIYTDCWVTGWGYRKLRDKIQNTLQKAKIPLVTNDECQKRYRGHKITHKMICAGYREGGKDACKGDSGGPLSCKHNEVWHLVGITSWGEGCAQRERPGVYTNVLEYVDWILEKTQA

| Binder | Kd [1] [nM] | IC50, inhibition of thrombin generation in the TGA with pooled human plasma (human FXI zymogen [2]) [nM] | IC50, inhibition of the enzymatic activity of full length human FXIa (cleavage of the fluorescent peptide D-Leu-Pro-Arg*Rh110-D-Pro) [3] [nM] | Kd [4] [nM] | Kd [5] [nM] | koff [5] [s⁻¹] | kon [5] [M⁻¹ s⁻¹] | Kd (human FXI zymogen [6]) [nM] | Kd [7] [nM] | fold higher affinity than to the catalytic domain (human FXI zymogen [8]) [fold] | fold higher affinity than to the catalytic domain [9] [fold] | Kd [10] [nM] | koff [10] [s⁻¹] | kon [10] [M⁻¹ s⁻¹] | fold higher affinity than to the activated FXI (human FXI zymogen [11]) [fold] | Kd (human FXI zymogen [12]) [nM] | Kd [13] [nM] |
| --- | --- | --- | --- | --- | --- | --- | --- | --- | --- | --- | --- | --- | --- | --- | --- | --- | --- |
| B1 | 0.005 | 24 | ~0.16 | 0.0125 | 21 | 0.00088 | 42000 | 0.0013 | 0.0047 |  |  |  |  |  |  |  |  |
| B2 |  |  |  |  |  |  |  |  |  | 300 | 66 | 19 | 0.00061 | 32000 | 5 | 0.062 | 0.305 |
